From the supplement of paper PMC7877785
± gives the uncertainty stated by the source.

Test: self-splicing fitness, log relative to wild type (ln ratio); higher = more splicing; Tetrahymena group I intron in knt gene, E. coli kanamycin selection, DiMSum; sequences stand for … in CUCUCU…GGAGGGAAAAGUUAUCAGGCAUGCACCUGGUAGCUAGUCUUUAAACCAAUAGAUUGCAUCGGUUUAAAAGGCAAGACCGUCAAAUUGCGGGAAAGGGGUCAACAGCCGUUCAGUACCAAGUCUCAGGGGAAACUUUGAGAUGGCCUUGCAAAGGGUAUGGUAAUAAGCUGACGGACAUGGUCCUAACCACGCAGCCAAGUCCUAAGUCAACAGAUCUUCUGUUGAUAUGGAUGCAGUUCACAGACUAAAUGUCGGUCGGGGAAGAUGUAUUCUUCUCAUAAGAUAUAGUCGGACCUCUCCUUAAUGGGAGCUAGCGGAUGAAGUGAUGCAACACUGGAGCCGCUGGGAACUAAUUUGUAUGCGAAAGUAUAUUGAUUAGUUUUGGAGUACUCGUGGUCG
Summary of the method: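 The eight P1ex-region nucleotides of an intron in the knt kanamycin-resistance gene on pET-22b(+) were all randomised and the library put into E. coli BL21(DE3). Six replicate transformations were grown overnight at 37°C or 30°C on LB agar with or without 25 μg/mL kanamycin, together with 100 μg/mL carbenicillin, 50 μM IPTG and 0.2% rhamnose. Colonies were pooled and amplicon-sequenced on an Illumina HiSeq 2500. Fitness from DiMSum is the error-weighted combination of wild-type-normalised replicate fold changes, kanamycin over none.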

Row | Sequence | self-splicing fitness (ln) (30 °C) | self-splicing fitness (ln) (37 °C)
1 | ACCAAGCAAUAUUACGCUCU | -0.714 ± 0.06 | -0.02 ± 0.073
2 | ACCAAGCAAUAUUACGGAUC | -3.49 ± 0.14 | -1.28 ± 0.1
3 | ACCAAGCAAUAUUACGGCAG | -3.19 ± 0.16 | -1.9 ± 0.17
4 | ACCAAGCAAUAUUACGGGAA | -2.85 ± 0.13 | -2.19 ± 0.1
5 | ACCAAGCAAUAUUACGGUCU | -2.13 ± 0.08 | -0.69 ± 0.066
6 | ACCAAGCAAUAUUACGUAAU | -2.74 ± 0.098 | -0.681 ± 0.078
7 | ACCAAGCAAUAUUACGUCGA | -2.16 ± 0.12 | -1.83 ± 0.1
8 | ACCAAGCAAUAUUACGUGCG | -1.03 ± 0.052 | -0.972 ± 0.069
9 | ACCAAGCAAUAUUACGUGUA | -2.28 ± 0.09 | -1.37 ± 0.096
10 | ACCAAGCAAUAUUACGUUAC | -3.66 ± 0.2 | -1.76 ± 0.14
11 | ACCAAGCAAUAUUACGUUCA | -1.65 ± 0.11 | -1.18 ± 0.1
12 | ACCAAGCAAUAUUACGUUGC | -2.65 ± 0.086 | -0.992 ± 0.075
13 | ACCCAGCAAUAUUACGCCGU | -1.37 ± 0.064 | -0.415 ± 0.081
14 | ACCCAGCAAUAUUACGCGAC | -2.48 ± 0.12 | -1.22 ± 0.13
15 | ACCCAGCAAUAUUACGCGGA | -0.326 ± 0.05 | 0.218 ± 0.064
16 | ACCCAGCAAUAUUACGGAAA | -0.977 ± 0.083 | -0.213 ± 0.083
17 | ACCCAGCAAUAUUACGGAUA | -0.912 ± 0.08 | -0.448 ± 0.083
18 | ACCCAGCAAUAUUACGGAUG | -1.57 ± 0.067 | -0.939 ± 0.083
19 | ACCCAGCAAUAUUACGGGGU | -3.58 ± 0.14 | -3 ± 0.14
20 | ACCCAGCAAUAUUACGUAAU | -0.676 ± 0.035 | 0.426 ± 0.061
21 | ACCCAGCAAUAUUACGUAUU | -1.93 ± 0.069 | -0.714 ± 0.077
22 | ACCCAGCAAUAUUACGUCAG | -3.14 ± 0.11 | -1.22 ± 0.092
23 | ACCCAGCAAUAUUACGUGAG | -0.151 ± 0.037 | -0.0922 ± 0.054
24 | ACCCAGCAAUAUUACGUGAU | -0.402 ± 0.034 | 0.181 ± 0.048
25 | ACCCAGCAAUAUUACGUUCC | -2.32 ± 0.11 | -1.02 ± 0.14
26 | ACCCAGCAAUAUUACGUUGG | -3.6 ± 0.1 | -2.16 ± 0.11

Row | Sequence | self-splicing fitness (ln) (30 °C) | self-splicing fitness (ln) (37 °C)
27 | ACCCAGCAAUAUUACGUUUG | -4.2 ± 0.13 | -2.44 ± 0.11
28 | ACCGAGCAAUAUUACGAAAA | -3.51 ± 0.3 | -2.81 ± 0.24
29 | ACCGAGCAAUAUUACGAAGG | -2.76 ± 0.17 | -2.7 ± 0.28
30 | ACCGAGCAAUAUUACGACGA | -1.16 ± 0.15 | -0.75 ± 0.15
31 | ACCGAGCAAUAUUACGAGAG | -3.89 ± 0.28 | -2.63 ± 0.18
32 | ACCGAGCAAUAUUACGAGCC | -3.21 ± 0.23 | -3.23 ± 0.32
33 | ACCGAGCAAUAUUACGAGUU | -3.25 ± 0.14 | -2.87 ± 0.15
34 | ACCGAGCAAUAUUACGAUAG | -3.12 ± 0.21 | -2.42 ± 0.24
35 | ACCGAGCAAUAUUACGAUUA | -2.31 ± 0.17 | -3.01 ± 0.25
36 | ACCGAGCAAUAUUACGCAAC | -2.01 ± 0.2 | -0.42 ± 0.2
37 | ACCGAGCAAUAUUACGCACG | -3.67 ± 0.31 | -3.29 ± 0.33
38 | ACCGAGCAAUAUUACGCCAG | – | -1.35 ± 0.27
39 | ACCGAGCAAUAUUACGCCGU | -3.49 ± 0.3 | -1.75 ± 0.2
40 | ACCGAGCAAUAUUACGCGAC | – | -2.66 ± 0.44
41 | ACCGAGCAAUAUUACGCGUG | -1.41 ± 0.079 | -0.71 ± 0.08
42 | ACCGAGCAAUAUUACGCUCA | -1.14 ± 0.13 | -0.577 ± 0.2
43 | ACCGAGCAAUAUUACGGCGA | -0.182 ± 0.086 | -0.768 ± 0.12
44 | ACCGAGCAAUAUUACGGUGG | -2.91 ± 0.13 | -3.14 ± 0.29
45 | ACCGAGCAAUAUUACGUAAU | -3.19 ± 0.12 | -1.54 ± 0.13
46 | ACCGAGCAAUAUUACGUACC | -3.88 ± 0.33 | -2.37 ± 0.44
47 | ACCGAGCAAUAUUACGUACG | -3.75 ± 0.28 | -2.57 ± 0.22
48 | ACCGAGCAAUAUUACGUAGG | -3.76 ± 0.2 | -2.79 ± 0.24
49 | ACCGAGCAAUAUUACGUCAC | -3.34 ± 0.27 | -2 ± 0.21
50 | ACCGAGCAAUAUUACGUCUA | -3.65 ± 0.28 | -2.86 ± 0.17
51 | ACCGAGCAAUAUUACGUGCA | -2.45 ± 0.13 | -1.79 ± 0.12
52 | ACCGAGCAAUAUUACGUGGU | -3.77 ± 0.17 | -2.05 ± 0.18

Row | Sequence | self-splicing fitness (ln) (30 °C) | self-splicing fitness (ln) (37 °C)
53 | ACCGAGCAAUAUUACGUUAC | -4.23 ± 0.22 | -2.66 ± 0.18
54 | ACCUAGCAAUAUUACGAAAG | -2.49 ± 0.11 | -2.2 ± 0.13
55 | ACCUAGCAAUAUUACGAAAU | -2.9 ± 0.16 | -0.321 ± 0.15
56 | ACCUAGCAAUAUUACGACAA | -0.996 ± 0.14 | -0.881 ± 0.16
57 | ACCUAGCAAUAUUACGACGC | -0.289 ± 0.11 | 0.164 ± 0.12
58 | ACCUAGCAAUAUUACGACUU | -0.837 ± 0.094 | 0.22 ± 0.1
59 | ACCUAGCAAUAUUACGAUAG | -3.99 ± 0.35 | -2.49 ± 0.41
60 | ACCUAGCAAUAUUACGAUCC | -2.35 ± 0.17 | -1.15 ± 0.2
61 | ACCUAGCAAUAUUACGCAAU | -2 ± 0.1 | -0.798 ± 0.09
62 | ACCUAGCAAUAUUACGCCAG | -1.83 ± 0.22 | –
63 | ACCUAGCAAUAUUACGCCGG | -0.962 ± 0.13 | -0.598 ± 0.17
64 | ACCUAGCAAUAUUACGCCGU | -0.801 ± 0.083 | -0.776 ± 0.11
65 | ACCUAGCAAUAUUACGCGAC | -2.55 ± 0.2 | -0.855 ± 0.19
66 | ACCUAGCAAUAUUACGCUCC | -1.55 ± 0.14 | -0.204 ± 0.12
67 | ACCUAGCAAUAUUACGCUCG | -1.43 ± 0.12 | -1.48 ± 0.14
68 | ACCUAGCAAUAUUACGCUGU | -1.54 ± 0.071 | -0.737 ± 0.078
69 | ACCUAGCAAUAUUACGGAUG | -2.77 ± 0.11 | -1.24 ± 0.09
70 | ACCUAGCAAUAUUACGGCCC | -0.812 ± 0.18 | -0.39 ± 0.24
71 | ACCUAGCAAUAUUACGGCUC | -0.922 ± 0.1 | -0.468 ± 0.14
72 | ACCUAGCAAUAUUACGUAUA | -1.6 ± 0.1 | -1.46 ± 0.12
73 | ACCUAGCAAUAUUACGUGGA | -2.36 ± 0.093 | -1.62 ± 0.084
74 | ACCUAGCAAUAUUACGUUGA | -1.98 ± 0.087 | -1.54 ± 0.098
75 | ACGAAGCAAUAUUACGAAUG | -1.51 ± 0.11 | -2.67 ± 0.18
76 | ACGAAGCAAUAUUACGAGCU | -1.56 ± 0.12 | -0.76 ± 0.11
77 | ACGAAGCAAUAUUACGAUCC | -1.12 ± 0.1 | -0.136 ± 0.14
